Drawing on US20260295010 (published 2026), this text covers Kd and koff for two molecules.

Common to all, as to assay: SPR, 25C
Assay [1] concerns the target T1, IL-12RB2-hFc (human, UniProt Q99665).
T1 chain: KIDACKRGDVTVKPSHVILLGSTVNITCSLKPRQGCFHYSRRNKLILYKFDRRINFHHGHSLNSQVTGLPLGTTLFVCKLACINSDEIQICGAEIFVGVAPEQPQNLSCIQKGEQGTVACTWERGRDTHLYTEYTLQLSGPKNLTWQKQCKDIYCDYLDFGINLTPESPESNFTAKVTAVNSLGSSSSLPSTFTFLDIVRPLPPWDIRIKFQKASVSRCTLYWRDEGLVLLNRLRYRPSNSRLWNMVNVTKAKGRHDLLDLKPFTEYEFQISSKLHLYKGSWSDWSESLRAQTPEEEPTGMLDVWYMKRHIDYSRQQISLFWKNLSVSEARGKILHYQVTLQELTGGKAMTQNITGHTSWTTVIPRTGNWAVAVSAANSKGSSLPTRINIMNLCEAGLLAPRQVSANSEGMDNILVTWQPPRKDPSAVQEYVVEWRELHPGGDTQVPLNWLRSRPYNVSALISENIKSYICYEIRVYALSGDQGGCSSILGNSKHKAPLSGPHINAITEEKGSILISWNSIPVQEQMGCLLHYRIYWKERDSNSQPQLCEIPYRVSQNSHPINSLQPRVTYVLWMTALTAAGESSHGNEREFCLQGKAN

The target of assay [2] is IL-12RB1-hFc (human, UniProt P42701).
For assay [3], the target named is T1, IL-12RB2-hFc.

Read-outs that look alike come from different tables or passages of the source.

B1: IL-12p70 W16A (protein)
chain 1: MIWELKKDVYVVELDAYPDAPGEMVVLTCDTPEEDGITWTLDQSSEVLGSGKTLTIQVKEFGDAGQYTCHKGGEVLSHSLLLLHKKEDGIWSTDILKDQKEPKNKTFLRCEAKNYSGRFTCWWLTTISTDLTFSVKSSRGSSDPQGVTCGAATLSAERVRGDNKEYEYSVECQEDSACPAAEESLPIEVMVDAVHKLKYENYTSSFFIRDIIKPDPPKNLQLKPLKNSRQVEVSWEYPDTWSTPHSYFSLTFSVQVQGKSKREKKDRVFTDKTSATVICRKNASISVRAQDRYYSSSWSEWASVPCSGGGSHHHHHH
chain 2: MRNLPVATPDPGMFPSLHHSQNLLRAVSNMLQKARQTLEFYPCTSEEIDHEDITKDKTSTVEACLPLELTKNESCLNSRETSFITNGSSLASRKTSFMMALCLSSIYEDLKMYQVEFKTMNAKLLMDPKRQIFLDQNMLAVIDELMQALNFNSETVPQKSSLEEPDFYKTKIKLCILLHAFRIRAVTIDRVMSYLNAS
Consider B1, for which the results for the Kd in assay [1] and in assay [3] were 16 nM and 0.62 nM, respectively. This molecule had a koff in assay [2] of 0.049 s⁻¹.

B2: IL-12p70 E87K,K196E,K198E (protein)
chain 1: MIWELKKDVYVVELDWYPDAPGEMVVLTCDTPEEDGITWTLDQSSEVLGSGKTLTIQVKEFGDAGQYTCHKGGEVLSHSLLLLHKKKDGIWSTDILKDQKEPKNKTFLRCEAKNYSGRFTCWWLTTISTDLTFSVKSSRGSSDPQGVTCGAATLSAERVRGDNKEYEYSVECQEDSACPAAEESLPIEVMVDAVHELEYENYTSSFFIRDIIKPDPPKNLQLKPLKNSRQVEVSWEYPDTWSTPHSYFSLTFSVQVQGKSKREKKDRVFTDKTSATVICRKNASISVRAQDRYYSSSWSEWASVPCSGGGSHHHHHH
chain 2: MRNLPVATPDPGMFPSLHHSQNLLRAVSNMLQKARQTLEFYPCTSEEIDHEDITKDKTSTVEACLPLELTKNESCLNSRETSFITNGSSLASRKTSFMMALCLSSIYEDLKMYQVEFKTMNAKLLMDPKRQIFLDQNMLAVIDELMQALNFNSETVPQKSSLEEPDFYKTKIKLCILLHAFRIRAVTIDRVMSYLNAS
Take B2: the koff in assay [2] is 0.0705 s⁻¹. Moreover, binding in assay [3] was put at a Kd of 0.61 nM.
